The text below walks through data of US20040175385A1 (University of California, published 2004).

Read-outs that look alike come from different tables or passages of the source.

Test [1] deals with T1, BoNT/A HC, recombinant binding domain (C-terminal domain of the heavy chain) of botulinum neurotoxin type A (Clostridium botulinum, UniProt P0DPI0 860-1296). The experiment in a line: SPR BIAcore, HC on chip, scFv in flow. On the technique in general: SPR reads the build-up and loss of mass on a sensor chip optically.
Test [2] concerns the target T1, BoNT/A HC, recombinant binding domain …. The experiment in a line: SPR BIAcore, Hc on chip, scFv in flow.
The target is the same in test [3]. The experiment in a line: SPR BIAcore, scFv column of Table 6.
Test [4] has the same target. In words: SPR BIAcore, IgG on chip, BoNT/A HC in flow.
Test [5] has the same target.
Test [6] addresses BoNT/A HC, recombinant binding domain (C-terminal domain of the heavy chain) of botulinum neurotoxin type A (Clostridium botulinum, UniProt P0DPI0 860-1296). In words: SPR BIAcore, HC on chip, scFv in flow. This is another data set of the same source.

B1: scFv C25 (scFv)
scFv: QVQLQESGGGLVKPGGSLKLSCAASGFTFSDYYMYWVRQTPEKRLEWVATISDGGSYTYYPDSVKGRFTISRDNAKNNLYLQMSSLKSEDTAMYYCSRYRYDDAMDYWGQGTTVTVSSGGGGSGGGGSGGGGSDIELTQSPASLAVSLGQRATISCRASESVDSYGHSFMQWYQQKPGQPPKLLIYRASNLEPGIPARFSGSGSGTDFTLTINPVEADDVATYYCQQSNEDPFTFGSGTKLEIKR
A word on the Kd: it is the free concentration of one partner at which half of the binding sites on the other are occupied at equilibrium, for simple one-to-one binding. What is called koff is the rate constant with which the complex falls apart. As usually defined, the kon is a measure of how fast the partners come together. For the molecule B1, in test [1], the Kd is 1.1 nM, the koff amounted to 0.00033 s⁻¹ and the kon was found to be 300000 M⁻¹ s⁻¹. Moreover, in test [2], the Kd was 1.1 nM, the koff is 0.00033 s⁻¹ and the kon was determined as 300000 M⁻¹ s⁻¹. In addition, in test [3], the Kd came out at 1.1 nM, the koff is 0.00033 s⁻¹ and the kon was 300000 M⁻¹ s⁻¹.

B2: 3D12 IgG (fully human IgG) (antibody, V domains shown)
VH: QVQLVQSGGGVVHPGRSLKLSCAGSGFTFSDYDMHWVRQAPGKGLEWVAVMWFDGTEKYSAESVKGRFTISRDNSKNTLFLQMNSLRADDTAVYYCAREPDWLLWGDRGALDVWGQGTTVTVSS
VL: DIVMTQSPSTLSASVGDRVTITCRASQSISSWLAWYQQKPGKAPKLLMYEASSLESGVPSRFSGSGSGTEFTLTISSLQPDDFAAYYCQHYNTYPYTFGQGTKLEIK
In the case of B2, in test [4], the Kd amounted to 0.0562 nM, the koff came to 0.000127 s⁻¹ and the kon came to 2.26e+06 M⁻¹ s⁻¹. Further, the Kd in test [5] was 0.55 nM.

B3: scFv 1F3 (scFv)
scFv: EVQLQQSGARLVKPGASVKLSCKASGYTFTSFWMHWVKQRPGRGLEWIGRLDPNSGETKYNEKFKSKATLTVDKPSSTAYMELSSLTSEDSAVYYCAREAYGYWNFDVWGTGTTVTVSSGGGGSGGGGSGGGGSDIELTQSPASMSASPGEKVTMTCRATSSVSSSYLHWYQQKSGASPKLWIYSASNLASGVPSRFSGSGSGTSYLSTISSVEAEDAATYYCQQYIGYPYTFGGGTKLEIKR
Take B3: in test [2], the Kd stood at 12 nM, the koff worked out at 0.011 s⁻¹ and the kon came out at 920000 M⁻¹ s⁻¹.

B4: scFv C39 (scFv)
scFv: QVQLQESGGGSVKPGGSLKLSCAASGFTFSDYYMSWVRQTPEKRLEWVATISDGGSYTYYPDSVKGRFTISRDNAKNNLYLQMSSLKSEDTAIYYCVRYRYDEGLDYWGQGTTVTVSSGGGGSGGGGSGGGGSDIELTQSPASLAVSLGRRATISCRASESVDSYGHSFMHWYQQKPGQPPKLLIYLASNLESGVPARFSGSGSRTDFTLTIDPVEADDAATYYCQQNNEDPYTFGGGTKLEIKR
Take B4: in test [2], the Kd came to 2.3 nM, the koff worked out at 0.00032 s⁻¹ and the kon came to 140000 M⁻¹ s⁻¹.

B5: scFv 3D12 (human, immune library) (scFv)
scFv: QVQLVQSGGGVVHPGRSLKLSCAGSGFTFSDYDMHWVRQAPGKGLEWVAVMWFDGTEKYSAESVKGRFTISRDNSKNTLFLQMNSLRADDTAVYYCAREPDWLLWGDRGALDVWGQGTTVTVSSGGGGSGGGGSGGGGSDIVMTQSPSTLSASVGDRVTITCRASQSISSWLAWYQQKPGKAPKLLMYEASSLESGVPSRFSGSGSGTEFTLTISSLQPDDFAAYYCQHYNTYPYTFGQGTKLEIK
For B5, in test [1], the Kd came out at 36.9 nM, the koff is 0.0005 s⁻¹ and the kon amounted to 13000 M⁻¹ s⁻¹. In test [3], the equilibrium dissociation constant (Kd) stood at 36.9 nM, the koff stood at 0.0005 s⁻¹ and the kon turned out to be 13000 M⁻¹ s⁻¹.

B6: C25 IgG (chimeric IgG, murine V domains, human C domains) (antibody, V domains shown)
VH: QVQLQESGGGLVKPGGSLKLSCAASGFTFSDYYMYWVRQTPEKRLEWVATISDGGSYTYYPDSVKGRFTISRDNAKNNLYLQMSSLKSEDTAMYYCSRYRYDDAMDYWGQGTTVTVSS
VL: DIELTQSPASLAVSLGQRATISCRASESVDSYGHSFMQWYQQKPGQPPKLLIYRASNLEPGIPARFSGSGSGTDFTLTINPVEADDVATYYCQQSNEDPFTFGSGTKLEIKR
Regarding B6, in test [4], the Kd was 1.69 nM, the koff is 0.00224 s⁻¹ and the kon was found to be 1.32e+06 M⁻¹ s⁻¹. In addition, in test [5], the Kd worked out at 11 nM.

B7: S25 IgG (chimeric IgG, murine V domains, human C domains) (antibody, V domains shown)
VH: QVKLQQSGAELVRPGASVKLSCKASGYSLTSYWMNWVKQRPQGGLEWIGNIHPSDSDTRFNQKFEDKATLTVDTSSSTAYMQLSSPTSEDSAVYYCARGLYNGFWYFDVWGQGTTVTVSS
VL: DIELTQSPALMAASPGEKVIITCSVSSSISSSNLHWYQQKSGTSPKPWIYGTSNLASQVPVRFSGSGSGTSYSLTISSMEAEDAATYYCQQWSSYPLTFGAGTKLEIKR
Turning to B7, in test [4], the Kd turned out to be 3.9 nM, the koff was 0.0057 s⁻¹ and the association rate constant (kon) is 1.46e+06 M⁻¹ s⁻¹.

B8: scFv 2B6 (human, non-immune library, Tables 9 and 10) (scFv)
chain: VKLVESGPGLVKPSQSLSLTCTVTGYSITSDYAWNWIRQFPGNKLEWMGYINYDGSNNYNPSLKNRISITRDTSKNQFFLKLNSVTSEDTATYYCARAGDGYYVDWYFDVWGTGTTVIVSSGGGGSGGGGSGGGGSYIELTQSPASLAVSLGQRATTSCRASESVDSYGNSFMHWYQQKPGQPPKLLIYLASNLESGVPARFSGSGSRTDFTLTIDPVEADDAATYYCQQNNEDPYTFGGGTKLEIKS
Regarding B8, in test [6], the Kd is 71.5 nM, the koff turned out to be 0.0078 s⁻¹ and the kon came to 109000 M⁻¹ s⁻¹.

B9: scFv S25 (scFv)
scFv: QVKLQQSGAELVRPGASVKLSCKASGYSLTSYWMNWVKQRPQGGLEWIGNIHPSDSDTRFNQKFEDKATLTVDTSSSTAYMQLSSPTSEDSAVYYCARGLYNGFWYFDVWGQGTTVTVSSGGGGSGGGGSGGGGSDIELTQSPALMAASPGEKVIITCSVSSSISSSNLHWYQQKSGTSPKPWIYGTSNLASQVPVRFSGSGSGTSYSLTISSMEAEDAATYYCQQWSSYPLTFGAGTKLEIKR
Turning to B9, in test [1], the Kd amounted to 73 nM, the koff was found to be 0.00082 s⁻¹ and the kon stood at 11000 M⁻¹ s⁻¹. Further, in test [2], the Kd was determined as 73 nM, the koff is 0.00082 s⁻¹ and the kon came out at 11000 M⁻¹ s⁻¹. In test [3], the Kd came to 73 nM, the koff is 0.00081 s⁻¹ and the kon was determined as 11000 M⁻¹ s⁻¹.
